Measured values reported in patent publication US20050276757.

B1: purified GST-ZC1 kinase domain (protein)
chain: MANDSPAKSLVDIDLSSLRDPAGIFELVEVVGNGTYGQVYKGRHVKTGQLAAIKVMDVTEDEEEEIKLEINMLKKYSHHRNIATYYGAFIKKSPPGHDDQLWLVMEFCGAGSITDLVKNTKGNTLKEDWIAYISREILRGLAHLHIHHVIHRDIKGQNVLLTENAEVKLVDFGVSAQLDRTVGRRNTFIGTPYWMAPEVIACDENPDATYDYRSDLWSCGITAIEMAEGAPPLCDMHPMRALFLIPRNPPPRLKSKKWSKKFFSFIEGCLVKNYMQRPSTEQLLKHPFIRDQPNERQVRIQLKDHIDRTRKKRGEKDETEYEYSGSEE
B2: kinase domain of ZC3 fused to GST (protein)
chain: MGDPAPARSLDDIDLSALRDPAGIFELVEVVGNGTYGQVYKGRHVKTGQLAAIKVMDVTEDEEEEIKQEINMLKKYSHHRNIATYYGAFIKKSPPGNDDQLWLVMEFCGAGSVTDLVKNTKGNALKEDCIAYICREILRGLAHLHAHKVIHRDIKGQNVLLTENAEVKLVDFGVSAQLDRTVGRRNTFIGTPYWMAPEVIACDENPDATYDYRSDIWSLGITAIEMAEGAPPLCDMHPMRALFLIPRNPPPRLKSKKWSKKFIDFIDTCLIKTYLSRPPTEQLLKFPFIRDQPTERQVRIQLKDHIDRSRKKRGEKEETE

Columns and labels:
[1] = biological target: p120 catenin expressed from a transfected plasmid (exogenous p120, HA-tagged in Example 1)
[2] = biological target: Flag-tagged Abi-1 expressed from pCMV-Flag-Abi1, Q8IZP0
Sequence of Flag-tagged Abi-1 expressed from pCMV-Flag-Abi1, Q8IZP0 (Q8IZP0 whole entry, looked up): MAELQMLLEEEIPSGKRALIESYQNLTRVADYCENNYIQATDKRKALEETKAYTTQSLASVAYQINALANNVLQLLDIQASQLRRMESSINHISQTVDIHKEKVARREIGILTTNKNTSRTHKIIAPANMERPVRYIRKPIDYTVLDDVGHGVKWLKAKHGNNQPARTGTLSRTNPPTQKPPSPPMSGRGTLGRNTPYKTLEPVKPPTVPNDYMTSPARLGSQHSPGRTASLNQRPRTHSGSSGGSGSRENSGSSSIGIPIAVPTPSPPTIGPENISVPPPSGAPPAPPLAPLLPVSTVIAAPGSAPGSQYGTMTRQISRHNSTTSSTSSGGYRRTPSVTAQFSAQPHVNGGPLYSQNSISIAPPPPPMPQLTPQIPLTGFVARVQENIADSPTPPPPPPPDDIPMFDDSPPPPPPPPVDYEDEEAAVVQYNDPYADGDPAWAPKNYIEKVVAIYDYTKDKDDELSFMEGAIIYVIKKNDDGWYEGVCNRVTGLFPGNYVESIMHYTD

Protein	in vitro phosphorylation (32P-ATP, autoradiography; gel mobility shift) [1]	in vitro phosphorylation (32P-ATP, autoradiography) [2]	in vitro phosphorylation (32P-ATP, autoradiography) (Myelin Basic Protein)
B1	added purified recombinant ZC1 enzyme induced phosphorylation of p120	–	–
B2	–	A strongly phosphorylated band corresponding to Abi-1 appears in the sample containing immunoprecipitated Abi-1 and GST-ZC3KD	MBP is known to be a good in vitro substrate for ZC3 and is indeed strongly phosphorylated
